This passage reports ADCC percentage and MFI results from patent US20190389958A1, “ANTI-CXCR4 ANTIBODIES” (MSM Protein Technologies, Inc., priority 2017, published 2019).

Test [1] concerns RA1 cells. In words: Antibody-dependent cell-mediated cytotoxicity (ADCC), LDH release (Example 10). The settings on record: E:T ratio 20:1. The format is cell-based, human. On the procedure:
ADCC was measured with RA1 cells as the target cells (T) and using the CytoTox 96® Non-Radioactive Cytotoxicity Assay (Promega Corp., Fitchburg, Wis.)), which assay measures lactate dehydrogenase (LDH) release. A round-bottom 96-well culture plate was set up with the following control and experimental wells (100 microliter final volumes):
a. RA1 cells (for target cell spontaneous LDH release control) b. RA1 cells (for target cell maximum LDH release control) c. Culture medium (RPMI 1640 Medium (1X) without phenol red) used for volume correction control d. Culture medium (for culture medium background control) e. RA1 plus effector cells (E) (for target plus effector cell spontaneous LDH release control) f. Experimental wells with effector and target cells (10^5) with serial dilutions of each test IgG or without test IgG.
The plates were centrifuged at 1600 rpm for 2 minutes and incubated at 37° C. for 4 hours. One hour prior to supernatant harvest, 20 microliters of Lysis Solution (10×) were added to the conditions b) and c). The plates were centrifuged at 1600 rpm for 2 minutes, and 50 microliters of the supernatant from each well of the assay plates were transferred to corresponding wells of a flat-bottom 96-well enzymatic assay plate. Substrate Mix (50 microliters) was added to each well of the latter plate, and the plate (protected from light) was incubated for 30 minutes at room temperature. Finally, 50 microliters of Stop Solution were added to each well, and absorbance (OD values) was measured at 490 nm. Each condition was tested in triplicates.
Preliminary experiments had been conducted in order to determine the optimal E:T ratio. The data shown below were obtained at a 20:1 E:T ratio with 10^5 RA1 target cells. The effector cells used in this study were prepared as follows: human peripheral blood mononuclear cells (PBMCs) obtained from a healthy donor were isolated by means of density gradient centrifugation using Lymphocyte Separation Medium (ref. J15-004, Invitrogen Corp., Carlsbad, Calif.). PBMCs at 2×10^6 per mL were cultured for two days in RPMI 1640 with 10% FCS, penicillin/streptomycin and 100 units per mL of human recombinant IL-2 (obtained from Roussel-Uclaf) in a 37° C. humidified incubator (5% CO2).
ADCC percentages obtained at different concentrations of test IgGs were calculated with the formula % ADCC=(f−e)/(b−a)×100, i.e., % ADCC=(OD of Target+Effector cells +/−Test Mab −OD of Spontaneous Release of Target+Effector cells)/(OD Maximal Release Target cells −OD Spontaneous Release of Target cells)×100.

In test [2] the target is T1, hCCR3 (Homo sapiens, UniProt P51677).
T1 construct: expressed in transfected cells
T1 sequence (P51677 1-355): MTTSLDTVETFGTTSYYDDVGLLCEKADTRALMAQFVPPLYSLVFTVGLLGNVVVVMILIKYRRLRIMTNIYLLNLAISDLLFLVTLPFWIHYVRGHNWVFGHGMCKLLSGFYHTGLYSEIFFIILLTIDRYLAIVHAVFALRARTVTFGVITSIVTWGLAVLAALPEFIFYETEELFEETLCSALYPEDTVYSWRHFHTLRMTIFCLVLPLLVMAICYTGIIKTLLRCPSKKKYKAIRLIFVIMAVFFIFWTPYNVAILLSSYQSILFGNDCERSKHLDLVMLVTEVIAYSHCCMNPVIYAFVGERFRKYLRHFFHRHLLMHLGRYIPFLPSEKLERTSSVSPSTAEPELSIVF
In words: Specificity for CXCR4, flow cytometry on GPCR over-expressing cells (Example 6). It counts as binding. The settings on record: cell line hCCR3; test IgG at 100 nM. Here is the method: (§1) Cells over-expressing different GPCRs other than CXCR4 and several lines transfected to over-express CXCR4 (R1610-hCXCR4, Cf2Th-hCXCR4 and CHO-hCXCR4) were compared. Cultures were incubated with a test IgG at 100 nM in FACS buffer for 40 min at 4° C. Thereafter, cells were washed twice, stained with anti-human-Fc antibody-PE conjugate (Jackson Immunoresearch Laboratories Inc., West Grove, Pa.), washed twice in FACS buffer and then transferred to FIX buffer. Fluorescence intensities were measured by GUAVA PCA-96 at 425V (in triplicate).
(§2) The expression of GPCRs other than CXCR4 was confirmed using commercially available antibodies (positive controls). For example, a commercial anti-CXCR1 antibody was used as a positive control for confirming the expression of CXCR1 on the CXCR1-transfected CHO cells.

For test [3], the target named is T2, hCCR7 (Homo sapiens, UniProt P32248).
T2 construct: expressed in transfected cells
T2 sequence (P32248 25-378): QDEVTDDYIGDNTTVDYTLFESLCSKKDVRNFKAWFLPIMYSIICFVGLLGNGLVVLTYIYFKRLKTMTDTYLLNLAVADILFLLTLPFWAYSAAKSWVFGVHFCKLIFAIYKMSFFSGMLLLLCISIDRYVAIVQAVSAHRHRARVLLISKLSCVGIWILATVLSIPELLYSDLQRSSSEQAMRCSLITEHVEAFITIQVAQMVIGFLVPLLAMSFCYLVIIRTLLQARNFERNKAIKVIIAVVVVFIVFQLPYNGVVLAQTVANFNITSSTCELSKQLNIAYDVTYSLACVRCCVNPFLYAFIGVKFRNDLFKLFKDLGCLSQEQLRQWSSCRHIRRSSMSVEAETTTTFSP
The test is described as above. The format is binding. As to conditions: cell line hCCR7; test IgG at 100 nM. On the procedure: as §1, §2

B1: V62.1-R108H-m47-m38: matured anti-CXCR4 antibody; LCVR SEQ ID NO 14, HCVR SEQ ID NO 18 (antibody, V domains shown)
VH: EVQLLESGGGLVQPGGSLRLSCAASGFTFSSYAMSWVRQAPGKGLEWVSAISGSGGTRYADSVKGRFTISRDNSKNTLYLQMNSLRAEDTAVYYCARQGKTRVYGYHWHGYGSTHALDYWGQGTLVTVSS
VL: EIVLTQSPGTLSLSPGERATLSCRASQSVSSSYLAWYQQKPGQAPRLLIYGASSRATGIPDRFSGSGSGTDFTLTISRLEPEDFAVYYCQQWSSDSVTFGQGTKVEIKRT
modifications: heavy chain variable region HCVR, variant 4; light chain variable region LCVR, variant 2
As to B1, the ADCC percentage worked out at 14% in test [1] (0.0001 μg/mL); 36% in test [1] (0.001 μg/mL); 50% in test [1] (0.01 μg/mL); 51% in test [1] (0.1 μg/mL); 55% in test [1] (1 μg/mL). In test [2], this molecule registered an MFI of 40.

B2: V62.1-R108H-m43-m38: matured anti-CXCR4 antibody; LCVR SEQ ID NO 14, HCVR SEQ ID NO 17 (antibody, V domains shown)
VH: EVQLLESGGGLVQPGGSLRLSCAASGFTFSSYAMSWVRQAPGKGLEWVSAISGSGGGSTRYADSVKGRFTISRDNSKNTLYLQMNSLRAEDTAVYYCARQGKTRVYGYHWHGYGSTHALDYWGQGTLVTVSS
VL: EIVLTQSPGTLSLSPGERATLSCRASQSVSSSYLAWYQQKPGQAPRLLIYGASSRATGIPDRFSGSGSGTDFTLTISRLEPEDFAVYYCQQWSSDSVTFGQGTKVEIKRT
modifications: heavy chain variable region HCVR, variant 3; light chain variable region LCVR, variant 2
Consider B2, for which the ADCC percentage in test [1] (0.0001 μg/mL) stood at 8%; in test [1] (0.001 μg/mL) it was 19%; in test [1] (0.01 μg/mL) it was 40%; in test [1] (0.1 μg/mL), 42%; in test [1] (1 μg/mL), 54%.

B3: V62.1-R108H-m80: matured anti-CXCR4 antibody; LCVR SEQ ID NO 13, HCVR SEQ ID NO 19 (antibody, V domains shown)
VH: EVQLLESGGGLVQPGGSLRLSCAASGFTISPYSITWVRQAPGKGLEWVSQINSYNGKTYYADSVKGRFTISRDNSKNTLYLQMNSLRAEDTAVYYCARQGKTRVYGYHWHGYGSTHALDYWGQGTLVTVSS
VL: EIVLTQSPGTLSLSPGERATLSCRASQSVSSSYLAWYQQKPGQAPRLLIYGASSRATGIPDRFSGSGSGTDFTLTISRLEPEDFAVYYCQQSDYSYPFTFGQGTKVEIKRT
modifications: heavy chain variable region HCVR, variant 5; light chain variable region LCVR, variant 1
As to B3, the ADCC percentage in test [1] (0.0001 μg/mL) is on record as 9%; in test [1] (0.001 μg/mL) it was 16%; in test [1] (0.01 μg/mL), 45%; in test [1] (0.1 μg/mL) it was 59%; in test [1] (1 μg/mL), 55%. The same molecule displayed an MFI in test [3] of 25.
